Consider one protein from article PMC5338821, “Structure determination of a major facilitator peptide transporter: Inward facing PepTSt from Streptococcus thermophilus crystallized in space group P3_(1)21” (PLoS ONE, 2017).

This data set concerns the molecule itself. Description: SEC; PepTSt solubilized and purified in LMNG (0.01%), final SEC step. For orientation: SEC sorts molecules by how far they enter the pores of the column.

B1: peptide transporter PepTSt from Streptococcus thermophilus (wild-type) (natural protein)
chain: MEDKGKTFFGQPLGLSTLFMTEMWERFSYYGMRAILLYYMWFLISTGDLHITRATAASIMAIYASMVYLSGTIGGFVADRIIGARPAVFWGGVLIMLGHIVLALPFGASALFGSIILIIIGTGFLKPNVSTLVGTLYDEHDRRRDAGFSIFVFGINLGAFIAPLIVGAAQEAAGYHVAFSLAAIGMFIGLLVYYFGGKKTLDPHYLRPTDPLAPEEVKPLLVKVSLAVAGFIAIIVVMNLVGWNSLPAYINLLTIVAIAIPVFYFAWMISSVKVTSTEHLRVVSYIPLFIAAVLFWAIEEQGSVVLATFAAERVDSSWFPVSWFQSLNPLFIMLYTPFFAWLWTAWKKNQPSSPTKFAVGLMFAGLSFLLMAIPGALYGTSGKVSPLWLVGSWALVILGEMLISPVGLSVTTKLAPKAFNSQMMSMWFLSSSVGSALNAQLVTLYNAKSEVAYFSYFGLGSVVLGIVLVFLSKRIQGLMQGVE
notes: PepTSt, major facilitator superfamily peptide transporter of Streptococcus thermophilus; Dimer in LMNG and DDM, monomer in DM and NM; also called Ce27; source: Escherichia coli C41, membrane solubilization, purified (IMAC, SEC) in DDM, DM, NM or LMNG; not shown: hexahistidine, C-terminal, cleaved
For orientation: stoichiometry N means a count of units in the complex or per binding partner. B1: the “stoichiometry N” value worked out at 2.
